Data from patent publication US20210145976A1.
Where a chain is given by its changes, count along the chain named.

B1: SEQ ID NO 252 (designed binder)
chain: MLPAPKNLVVSRVTEDSARLSWTAPDAAFDSFDIGYTEYGGYGEAIVLTVPGSERSYDLTGLKPGTEYWVLIQGVKGGGSSVPLSAIFTT
B2: SEQ ID NO 255 (designed binder)
chain: B1 chain with G35E, T37Y, Y39L, G40I, Y42R, L71G, Q73Y, G79W, S80L, V82R
B3: SEQ ID NO 256 (designed binder)
chain: MLPAPKNLVVSRVTEDSARLSWTAPDAAFDSFHIVYHEPRPSGEAIVLTVPGSERSYDLTGLKPGTEYEVGIVGVKGGDLSVPLSAIFTT
B4: SEQ ID NO 257 (designed binder)
chain: B3 chain with G74S
B5: SEQ ID NO 274 (designed binder)
chain: MLPAPKNLVVSRVTEDSVRLSWTAPDAAFDSFAISYEEWWVHGEAIVLTVPGSERSYDLTGLKPGTEYSVVIPGVKGGLYSWTLSAISTT
B6: SEQ ID NO 260 (designed binder)
chain: MLPAPKNLVVSRVTEDSARLSWTAPDAAFDSFNISYYEYFVHGEAIVLTVPGSERSYDLTGLKPGTEYYVIDGVKGGDPSEPLSAIFTT
B7: SEQ ID NO 251 (designed binder)
chain: MLPAPKNLVVSRVTEDSARLSWTAPDAAFDSFFIGYLEPQPPGEAIVLTVPGSERSYDLTGLKPGTEYNVTIQGVKGGFPSMPLSAIVTT
B8: SEQ ID NO 263 (designed binder)
chain: B7 chain with V88S
B9: SEQ ID NO 54 (designed binder)
chain: MLPAPKNLVVSRVTEDSARLSWTAPDAAFDSFQILYQENAFEGEAIVLTVPGSERSYDLTGLKPGTEYWVYIYGVKGGYPSVPLSAIFTT
B10: SEQ ID NO 253 (designed binder)
chain: MLPAPKNLVVSRVTEDSARLSWTAPDAAFDSFTIEYWETIGGGEAIVLTVPGSERSYDLTGLKPGTEYYVGIYGVKGGWWSRPLSAIFTT
B11: SEQ ID NO 262 (designed binder)
chain: B10 chain with T33A, W37F, T39Y, I40T, G42E, W79Y, W80L
B12: SEQ ID NO 259 (designed binder)
chain: B10 chain with W37F, T39F, I40V, G41D, G42A, Y69W, G71E, Y73W, W79S, R82K
B13: SEQ ID NO 279 (designed binder)
chain: B10 chain with T33S, W37Y, T39S, I40V, G42L, Y69D, G71S, W79Y, W80L
B14: SEQ ID NO 277 (designed binder)
chain: B10 chain with T33W, E35N, W37Y, T39G, G42E, G71D, Y73S, W79S, W80Y, R82L
B15: SEQ ID NO 266 (designed binder)
chain: MLPAPKNLVVSRVTEDSARLSWTAPDAAFDSFMIRYQEGTRWGEAIVLTVPGSERSYDLTGLKPGTEYIVMIAGVKGGQISLPLSAIFTT
B16: SEQ ID NO 269 (designed binder)
chain: MLPAPKNLVVSRVTEDSARLSWTAPDAAFDSFHINYAEVYTKGEAILLTVPGSERSYDLTGLKPGTEYEVYIPGVKGGPFSRPLNAQFTT
B17: SEQ ID NO 265 (designed binder)
chain: MLPAPKNLVVSRVTEDSARLSWTAPDAAFDSFWIYYIETSHQGEAIVLTVPGSERSYDLTGLKPGTEYFVLIKGVKGGYDSVPLSAIFTT
B18: SEQ ID NO 254 (designed binder)
chain: MLPAPKNLVVSRVTEDSARLSWTAPDAAFDSFFIPYAEPSPTGEAIVLTVPGSERSYDLTGLKPGTEYSVLIHGVKGGHLSDPLSAISTT
B19: SEQ ID NO 271 (designed binder)
chain: B18 chain with F33Y, P39T, S40R, P41D, T42D, H79D, D82S, S88F
B20: SEQ ID NO 272 (designed binder)
chain: B18 chain with F33G, P39S, S40T, S88F
B21: SEQ ID NO 258 (designed binder)
chain: B18 chain with S69D, L71W, H73E, H79V, D82W, S88F
B22: SEQ ID NO 278 (designed binder)
chain: B18 chain with F33P, P35A, S40R, T42D, S88F
B23: SEQ ID NO 275 (designed binder)
chain: B18 chain with F33L, P35A, P39V, S40T, P41L, T42H, H79R, L80N, S88F
B24: SEQ ID NO 52 (designed binder)
chain: MLPAPKNLVVSRVTEDSARLSWTAPDAAFDSFKISYQEWWEDGEAIVLTVPGSERSYDLTGLKPGTEYWVNISGVKGGVQSYPLSAIFTT
B25: SEQ ID NO 264 (designed binder)
chain: B24 chain with K33R, S35K, E41V, D42E, W69V, N71Q, S73A, V79L, Q80S
B26: SEQ ID NO 53 (designed binder)
chain: B24 chain with K33F, Q37I, E41D, D42L, W69H, N71E, S73F, V79T
B27: SEQ ID NO 276 (designed binder)
chain: MLPAPKNLVVSRVTEDSARLSWTAPDAAFDSFRIDYLELTSLGEAIVLTVPGSERSYDLTGLKPGTEYPVPILGVKGGLSSWPLSAIFTT
B28: SEQ ID NO 261 (designed binder)
chain: MLPAPKNLVVSRVTEDSARLSWTAPDAAFDSFTIVYGEWGVPGEAIVLTVPGSERSYDLTGLKPGTEYDVWIEGVKGGDLSWPLSAIVTT
B29: SEQ ID NO 267 (designed binder)
chain: B28 chain with T33P, G37S, W39I, G40H, P42I, D79H, W82E, V88F
B30: SEQ ID NO 268 (designed binder)
chain: B28 chain with W39A, V41A, P42F, W71L, D79N, V88F

molecular target: human serum albumin (human) (UniProt P02768); test: screening ELISA
Sequence (P02768 25-609 limits assumed): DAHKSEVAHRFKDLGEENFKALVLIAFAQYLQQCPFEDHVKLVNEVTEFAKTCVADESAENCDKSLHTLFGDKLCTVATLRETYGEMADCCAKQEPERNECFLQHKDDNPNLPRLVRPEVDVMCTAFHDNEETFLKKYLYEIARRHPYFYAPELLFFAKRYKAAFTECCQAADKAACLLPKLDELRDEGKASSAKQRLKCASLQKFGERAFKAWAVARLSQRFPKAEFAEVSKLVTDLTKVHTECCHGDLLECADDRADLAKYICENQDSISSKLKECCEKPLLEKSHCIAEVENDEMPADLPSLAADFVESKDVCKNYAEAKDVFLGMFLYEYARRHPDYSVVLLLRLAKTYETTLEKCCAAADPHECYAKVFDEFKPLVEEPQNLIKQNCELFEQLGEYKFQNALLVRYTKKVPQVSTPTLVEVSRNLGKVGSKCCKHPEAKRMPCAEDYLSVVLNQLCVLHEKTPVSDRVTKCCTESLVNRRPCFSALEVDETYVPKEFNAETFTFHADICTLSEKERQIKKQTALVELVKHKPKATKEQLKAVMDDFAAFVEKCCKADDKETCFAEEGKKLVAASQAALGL

Binder | HSA
B1 | 2500
B2 | 4550
B3 | 2200
B4 | 3950
B5 | 11900
B6 | 14400
B7 | 9650
B8 | 20400
B9 | 6160
B10 | 2450
B11 | 2350
B12 | 2100
B13 | 3150
B14 | 5200
B15 | 2650
B16 | 4150
B17 | 3950
B18 | 90000
B19 | 3050
B20 | 8950
B21 | 10600
B22 | 6500
B23 | 3800
B24 | 1760
B25 | 2550
B26 | 9120
B27 | 12400
B28 | 5550
B29 | 11900
B30 | 2550
